US20210162028A1, “Methods for Inducing Intermittent Fasting and Modulating Autophagy” (The Hong Kong Polytechnic University, priority 2019, published 2021)
Entries after “also recorded” stand apart in the source; their conditions may differ.

Columns and labels:
[1] = Daily food intake / 7-day intermittent fasting cycle in mice; type: in vivo, mouse
Excerpt: One of the most noticeable effects of intermittent fasting is reduction of bodyweight. […] Specifically, C57BL/6J, which is the most commonly used mouse strain for polygenic obesity model, was used in the study. It is well-reported that C57BL/6J male mice feeding on a high-fat diet will have prominent weight gain, become obese and develop hyperinsulinemia, hyperglycemia, impaired glucose tolerance and insulin resistance [Gallou-Kabani et al., 2007, Obesity 15(8):1996-2005]. Obesity was induced in C57BL/6J male mice via feeding ad libitum a high-fat diet containing 60 kcal % fat (HFD; Research Diets, D12492) for 12-14 weeks starting from 5-week old. These mice are referred as diet-induced obese (DIO) mice. DIO mice were stratified according to bodyweight into 2 groups. […] Both groups of mice continued to feed ad libitum on the HFD throughout the treatment period. One group of age-matched C57BL/6J male mice feeding ad libitum on an ordinary rodent chow diet (CD; LabDiet, 50IF/6F) and injected with vehicle served as the lean control [CD (vehicle) group]. Food intake and bodyweight of mice were measured daily. […] DIO mice were injected with rhArg on Day 0, which was Day 7 of the previous cycle. Similarly, Day 7 of the cycle shown in FIG. 1B was Day 0 of the next cycle. […] Bodyweight gain is one of the biomarkers related to aging.
C57BL/6J male mice were fed a high-fat diet from 5-week old for 12 weeks. They were then stratified into 3 groups according to their bodyweight and individually caged: (i) one group of mice received i.p. injection of 600 U N-ABD094-rhArg (SEQ ID NO: 50) once a week [HFD (rhArg) group] and was fed ad libitum the HFD for 5 weeks; (ii) one group of mice received i.p. injection of saline once a week, and was fed a predetermined amount of HFD on each day to artificially create a 7-day intermittent fasting cycle that mimics the pattern of food intake of mice administered once a week with rhArg [HFD (artificial IF) group)]; (iii) one group of mice was injected with saline once a week and was fed ad libitum the HFD [HFD (vehicle) group].

[2] = Fat pad and organ mass at end of treatment; type: in vivo, mouse
[3] = Insulin tolerance test (ITT); type: in vivo, mouse
Excerpt: In terms of reversing insulin resistance on pre-existing obese mice, insulin tolerance test (ITT) was employed (FIG. 59).
In terms of reversing insulin resistance on pre-existing obese mice, insulin tolerance test (ITT) was employed (FIG. 68A).

[4] = Half-life / therapeutic duration in circulation; set-up: species or system mice; settings: mouse, in vivo
Excerpt: As used herein, the term “half-life” or “½-life” refers to the time that would be required for the concentration of an agent, e.g., a fusion protein or arginine depleting agent as described herein, to fall by half in vitro or in vivo, for example, after injection into a mammal. In certain instances, the concentration of plasma arginine, after injection, is used herein as a proxy indicator of the half-life of the agent. In such instances, the term “therapeutic duration” is used to refer to the length of time a specified dosage of the arginine depleting agent is able to maintain the plasma concentration of arginine below a specified threshold concentration that a desired therapeutic effect is observed. In certain embodiments, the threshold concentration of plasma arginine is below 50 μM, below 40 μM, below 30 μM, below 20 μM, below 10 μM, below 5 μM, below 3 μM, or at a concentration below the detection limit of conventional analytical instrumentation.
Importantly, the present invention used a new ABD fusion approach to join an ABD and an arginase together so that arginase activity can be retained. Stable and soluble arginase-ABD fusion molecules that can bind to FcRn in a pH-dependent manner were successfully generated, allowing for efficient endosomal recycling. […] Taken together, a variety of different approaches are available for fine-tuning the pharmacokinetic properties of arginases, ensuring appropriate residence time in circulation for different disease conditions. Another key issue in the development of any therapeutic protein is to minimize immunogenicity to avoid adverse effects. Thus, the observed low immunogenicity of human arginase and the successful deimmunization of ABD (e.g. ABD094), which was also used in the present disclosure as gene fusion partner to extend the in vivo half-life, are important.

[5] = Liver and kidney damage biomarkers (serum ALT/AST, urine albumin-to-creatinine); type: in vivo, mouse; settings: DIO C57BL/6J male mice on HFD; about 600 U once a week, 34 weeks
Excerpt: Other than WAT and BAT, obesity is associated with excessive accumulation of lipids in the liver (hepatic steatosis). Indeed, the liver of vehicle-treated DIO mice was markedly enlarged (FIG. 7A), with a mass about 3 times (4.68 g) that of the lean control (1.73 g) (FIG. 7B).
Other than liver, obesity is also commonly associated with lipid accumulation in the kidney (renal steatosis) and heart (cardiac steatosis), causing lipotoxicity and dysfunction of these organs. Indeed, there was an increase in kidney and heart mass in DIO mice treated with vehicle (FIG. 8A and FIG. 9A).

Rotarod test = type: in vivo, mouse
[6] = DIO C57BL/6J male mice on HFD, about 600 U i.p. once a week, 34 weeks
[7] = DIO C57BL/6J male mice on HFD, about 600 U once a week, 49 weeks
[8] = DIO C57BL/6J male mice on HFD, 300 U rhArg once a week and/or 300 mg/kg metformin daily
[9] = DIO C57BL/6J male mice on HFD, 600 U once a week, 5 weeks (artificial IF experiment)

B1: N-ABD094-rhArg: recombinant human arginase fused to albumin binding domain ABD094 (SEQ ID NO: 50); engineered long-acting arginine-depleting enzyme (protein)
chain: MHHHHHHDEAVDANSLAEAKEAANAELDSYGVSDFYKRLIDKAKTVEGVEALKDAILAALPSGSNNNNNNGSGGMSAKSRTIGIIGAPFSKGQPRGGVEEGPTVLRKAGLLEKLKEQECDVKDYGDLPFADIPNDSPFQIVKNPRSVGKASEQLAGKVAEVKKNGRISLVLGGDHSLAIGSISGHARVHPDLGVIWVDAHTDINTPLTTTSGNLHGQPVSFLLKELKGKIPDVPGFSWVTPCISAKDIVYIGLRDVDPGEHYILKTLGIKYFSMTEVDRLGIGKVMEETLSYLLGRKKRPIHLSFDVDGLDPSFTPATGTPVVGGLTYREGLYITEEIYKTGLLSGLDIMEVNPSLGKTPEEVTRTVNTAVAITLACFGLAREGNHKPIDYLNPPK
modifications: N-ABD094-rhArg, Synthesized in the Lab
notes: engineered long-acting arginine-depleting enzyme
Pattern of food intake (intermittent fasting cycles) ([1]; 16-month old DIO C57BL/6J male mice on HFD, about 600 U once a week, 25 weeks): induce repetitive 7-day intermittent fasting cycles
Pattern of food intake (intermittent fasting cycles) ([1]; 17-month old C57BL/6J male mice on chow diet, about 600 U once a week, 21 weeks): induce repetitive 7-day intermittent fasting cycles
Pattern of food intake (intermittent fasting cycles) ([1]; 25-month old C57BL/6J male mice on chow diet, about 600 U once a week, 30 weeks): prominent repetitive 7-day intermittent fasting cycles
Pattern of food intake (intermittent fasting cycle) ([1]; DIO C57BL/6J male mice on HFD, 200 U rhArg i.p. once a week and/or 0.33 mg RA daily): weak 7 days intermittent fasting cycle
Total food intake per week, less than HFD (vehicle) group ([1]; DIO C57BL/6J male mice on HFD, 200 U rhArg i.p. once a week and/or 0.33 mg RA daily by gastric feeding, 10 weeks): slight, but insignificant decrease
Pattern of food intake (intermittent fasting cycle) ([1]; DIO C57BL/6J male mice on HFD, 200 U rhArg i.p. once a week and/or 0.33 mg RA daily, listed as rhArg): 7-day pattern of decreased food intake followed by an increase of food intake, but the magnitude was less than HFD (rhArg+RA) group
Pattern of food intake (intermittent fasting cycle) ([1]; DIO C57BL/6J male mice on HFD, 300 U rhArg i.p. once a week and/or 300 mg/kg metformin daily): weak intermittent fasting cycle
Total food intake per week, less than HFD (vehicle) group ([1]; DIO C57BL/6J male mice on HFD, 300 U rhArg i.p. once a week and/or 300 mg/kg metformin daily by gastric feeding, 9 weeks): did not induce significant change in total food intake per week
Pattern of food intake (intermittent fasting cycle) ([1]; DIO C57BL/6J male mice on HFD, 300 U rhArg i.p. once a week and/or 300 mg/kg metformin daily, listed as rhArg): 7-day pattern of decreased food intake followed by an increase of food intake, but the magnitude was less than HFD (rhArg+Met) group
Total food intake per week, less than HFD (vehicle) group ([1]; DIO C57BL/6J male mice on HFD, 600 U i.p. once a week, 5 weeks (artificial IF experiment)): 26%
Reduction of total food intake per week ([1]; DIO C57BL/6J male mice on HFD, 600 U i.p. once a week, 5 weeks (reduced daily food intake experiment)): 30%
Pattern of food intake (intermittent fasting cycles) [1, 6]: repetitive cycles of intermittent fasting; also recorded: repetitive 7-day intermittent fasting cycles
Total food intake per week, less than HFD (vehicle) group [1, 6]: about 30%
Pattern of food intake (intermittent fasting cycles) [1, 7]: repetitive 7-day intermittent fasting cycles
Total food intake per week, less than HFD (vehicle) group [1, 7]: about 29%
Pattern of food intake (intermittent fasting cycles) ([1]; DIO C57BL/6J male mice on HFD, about 600 U once a week, 49 weeks, listed as rhArg): repetitive cycles of intermittent fasting
Pattern of food intake (intermittent fasting cycles) ([1]; DIO ICR female mice on HFD, about 1200 U i.p. once a week, 56 weeks): repeatedly occurring in ICR female mice throughout the 56 weeks of treatment period; also recorded: repetitive 7-day intermittent fasting cycles
Fat pad mass of perirenal and inguinal WAT, interscapular BAT and liver mass ([2]; 17-month old C57BL/6J male mice on chow diet, once a week, 21 weeks): significant reduction in the fat pad mass
Mass of liver ([2]; 17-month old C57BL/6J male mice on chow diet, once a week, 21 weeks, versus CD Old (vehicle) and CD Young (vehicle)): the lowest amongst all 3 groups
Mass of organs including liver, kidney and BAT [2, 8]: cannot reduce the mass of most organs
Visceral and subcutaneous fat mass [2, 8]: did not reduce body fat
Fat pad mass of perirenal and inguinal WAT and interscapular BAT [2, 9]: marked reduction in the fat pad mass
Liver mass [2, 9]: prominently reduced to the same extent for both groups
Liver weight ([2]; DIO C57BL/6J male mice on HFD, 600 U once a week, 12 weeks): the weight was similar to the lean control
Fatty pancreas ([2]; DIO C57BL/6J male mice on HFD, half dose alone): can also reverse the fatty pancreas
Mass of organs including liver, pancreas and BAT ([2]; DIO C57BL/6J male mice on HFD, rhArg once a week alone or 0.33 mg RA daily alone): can already reduce the mass of most organs
Visceral and subcutaneous fat mass ([2]; DIO C57BL/6J male mice on HFD, rhArg once a week and/or 0.33 mg RA daily): did not reduce body fat
Fat pad mass (WAT, BAT) and liver, kidney and heart mass ([2]; DIO ICR female mice on HFD, once a week, 56 weeks): significantly less than that of HFD-fed mice treated with vehicle
Insulin sensitivity in ITT ([3]; 16-month old DIO C57BL/6J male mice on HFD, once a week, at 9 weeks): markedly reverse pre-existing insulin resistance; also recorded: effectively reverse insulin resistance
Insulin sensitivity in ITT ([3]; DIO C57BL/6J male mice on HFD, 300 U/week rhArg and/or 300 mg/kg metformin, after 6 weeks): marginal effect on improving insulin sensitivity but not reach statistical significant
Insulin sensitivity in ITT ([3]; DIO C57BL/6J male mice on HFD, 600 U once a week, after 2 weeks (reduced daily food intake experiment)): marked increase in insulin sensitivity by 2 weeks after treatment
Insulin sensitivity in ITT ([3]; DIO C57BL/6J male mice on HFD, 600 U once a week, at 2 and 4 weeks (artificial IF experiment)): reversal of insulin resistance and marked increase in insulin sensitivity by 2 weeks after treatment; also recorded: significant improvement in insulin sensitivity by 2 weeks
Insulin sensitivity in ITT ([3]; DIO C57BL/6J male mice on HFD, about 600 U once a week, at 16 and 32 weeks): complete reversion of insulin resistance; also recorded: effectively reverse insulin resistance
Insulin sensitivity in ITT ([3]; DIO C57BL/6J male mice on HFD, rhArg weekly and/or 0.33 mg/day RA, after 6 weeks): marginal effect on improving insulin sensitivity but not reach statistical significant
Insulin sensitivity in ITT ([3]; DIO ICR female mice on HFD, once a week, at 15 and 31 weeks): better insulin sensitivity than age-matched mice in CD (vehicle) group
Therapeutic duration (and half-life) [4]: much longer than BHA and BAH
Ratio of albumin-to-creatinine in urine [5]: levels similar to the age-matched lean control mice
Serum concentrations of ALT and AST [5]: restored to levels comparable to the lean control mice
Rotarod test: latency to fall (Rotarod test; DIO C57BL/6J male mice on HFD, weekly for 30 weeks): latency similar to mice in CD (vehicle) group
Rotarod test: performance (Rotarod test; DIO ICR female mice on HFD, weekly, at 55 weeks): significantly better than mice in HFD (vehicle) group
